Source: doi:10.1101/2023.05.09.538545v2

Key:
Experiment in all cases: purified protein
Assay type in all cases: biochemical, Escherichia coli
Details in all cases: 0.05 M phosphate buffer, pH 7.0, 35 °C
[1] = substrate: CCCC(=O)CC(=O)N[C@H]1CCOC1=O
[2] = substrate: CCCCCC(=O)CC(=O)N[C@H]1CCOC1=O
[3] = substrate: CCCCCCCCCC(=O)CC(=O)N[C@H]1CCOC1=O
[4] = substrate: CCCCCCCCCC(=O)N[C@H]1CCOC1=O

B1: ecPGA (Escherichia coli penicillin G acylase) (Escherichia coli) (protein)
chain 1: EQSSSEIKIVRDEYGMPHIYANDTWHLFYGYGYVVAQDRLFQMEMARRSTQGTVAEVLGKDFVKFDKDIRRNYWPDAIRAQIAALSPEDMSILQGYADGMNAWIDKVNTNPETLLPKQFNTFGFTPKRWEPFDVAMIFVGTMANRFSDSTSEIDNLALLTALKDKYGVSQGMAVFNQLKWLVNPSAPTTIAVQESNYPLKFNQQNSQTA
chain 2: SNMWVIGKSKAQDAKAIMVNGPQFGWYAPAYTYGIGLHGAGYDVTGNTPFAYPGLVFGHNGVISWGSTAGFGDDVDIFAERLSAEKPGYYLHNGKWVKMLSREETITVKNGQAETFTVWRTVHGNILQTDQTTQTAYAKSRAWDGKEVASLLAWTHQMKAKNWQEWTQQAAKQALTINWYYADVNGNIGYVHTGAYPDRQSGHDPRLPVPGTGKWDWKGLLPFEMNPKVYNPQSGYIANWNNSPQKDYPASDLFAFLWGGADRVTEIDRLLEQKPRLTADQAWDVIRQTSRQDLNLRLFLPTLQAATSGLTQSDPRRQLVETLTRWDGINLLNDDGKTWQQPGSAILNVWLTSMLKRTVVAAVPMPFDKWYSASGYETTQDGPTGSLNISVGAKILYEAVQGDKSPIPQAVDLFAGKPQQEVVLAALEDTWETLSKRYGNNVSNWKTPAMALTFRANNFFGVPQAAAEETRHQAEYQNRGTENDMIVFSPTTSDRPVLAWDVVAPGQSGFIAPDGTVDKHYEDQLKMYENFGRKSLWLTKQDVEAHKESQEVLHVQR
In the case of B1, the Km [1] is reported as 510 ± 30 µM, the kcat [1] is reported as 0.0100 ± 0.0002 s⁻¹ and the Km [2] is reported as 880 ± 40 µM. For the same protein, the kcat [2] was 0.0077 ± 0.0004 s⁻¹, the Km [3] was 2500 ± 100 µM and the kcat [3] was 0.0043 ± 0.0002 s⁻¹. It also gave a Km [4] of 2980 ± 200 µM and a kcat [4] of 0.0045 ± 0.0004 s⁻¹.
